{
  "source": "patent US20080070264A1",
  "about": "“Intracellular Signaling-Induced Ret-Independent Gdnf Receptor-Effected Morphological Changes” (JPMORGAN CHASE BANK N.A., priority 2003, published 2008)",
  "key": {"[1]": {"tested_on": "GFRα1-expressing MDCK cells", "test": "Branching tubule formation assay in 3-D collagen gel", "format": "cell-based, dog", "method": "(§1) From the total amount of cysts in the field, the percentage of cysts with long branches was calculated. Only branches with lengths of more than two cyst diameters were counted.\n(§2) FIG. 2C: Dose-dependence of GDNF-induced branching of GFRα1- and RET/GFRα1-expressing MDCK cells. GDNF concentrations are per ml (x-axis). Results are reported as fold of branching cysts count over the non-induced control. Means±standard errors of the mean of five to eight counted fields are shown. The results are representative of five (A and B) and three (C) independent experiments, p<0.001.\n(§3) Trypsinized cells were mixed 1:3 with collagen type I solution and plated. MEM with 10% FCS was overlaid on the gels with or without GDNF (Cephalon Inc. or R&D Systems, Inc.) or 50 ng/ml HGF. Cells in collagen were cultured for 3 days; GDNF-containing medium was changed daily. For quantification, cells were cultured for 3 days, fixed by 3% glutaraldehyde in PBS and counted under a light microscope.\n(§4) To avoid the effect of possible contamination of GDNF preparation, recombinant GDNF from two different sources were tested. One tested GDNF was expressed in baculovirus-infected insect cells (Cephalon Inc.), the other was expressed in mouse myeloma cell line NSO (R&D Systems, Inc.)."}, "[2]": {"tested_on": "RET/GFRα1-expressing MDCK cells", "test": "Branching tubule formation assay in 3-D collagen gel", "format": "cell-based, dog", "method": "as §1, §2, §3, §4"}, "[3]": {"tested_on": "GFRα1-expressing, RET deficient MDCK cells", "test": "Chemoattraction assay on collagen matrix with soaked agarose beads", "format": "cell-based, dog", "settings": "beads soaked in GDNF 10 ng/μl; collagen I; 3 days", "excerpt": "(§5) FIG. 3B: Chemoattraction assay on collagen matrix. Only RET/GFRα1-expressing cells migrate towards GDNF-soaked agarose beads. BSA-soaked agarose beads were used as negative controls. Agarose beads are denoted by white circles. Note that mock transfected, GFRα1-expressing and RET/GFRα1-expressing cells form clusters of adherent cells (denoted by arrowhead) with BSA-soaked beads after 3 days, whereas RET/GFRα1 cells migrating towards GDNF bead are dissociated.\n(§6) 3.5 cm dishes were coated with collagen I solution and 20,000 cells were seeded on the coated dish. GDNF-soaked agarose beads, prepared as described (Sainio et al., 1997), were put on the gel before it solidified. Cells around the beads were photographed daily.\n(§7) In another chemotaxis assay, RET/GFRα1-, GFRα1- and mock-transfected MDCK cells were seeded on culture dishes coated with collagen I. Agarose beads were soaked in GDNF (10 ng/μl) or 1% BSA. A bead was placed on top of the soft collagen, and cells were monitored for 3 days."}, "[4]": {"tested_on": "RET/GFRα1-expressing MDCK cells", "test": "Chemoattraction assay on collagen matrix with soaked agarose beads", "format": "cell-based, dog", "settings": "beads soaked in GDNF 10 ng/μl; collagen I; 3 days", "excerpt": "as §5, §6, §7"}, "[5]": {"tested_on": "mock-transfected MDCK cells", "test": "Chemoattraction assay on collagen matrix with soaked agarose beads", "format": "cell-based, dog", "settings": "beads soaked in GDNF 10 ng/μl; collagen I; 3 days", "excerpt": "as §5, §6, §7"}, "MET": {"tested_on": "MET", "test": "MET activation in GFRα1-transfected COS7 cells", "format": "cell-based"}, "[6]": {"settings": "ligand 100 ng/ml, 3-D collagen gel"}},
  "data": [
    {"molecule": "GDNF: recombinant glial cell line-derived neurotrophic factor from Cephalon Inc. (baculovirus-infected insect cells) or R&D Systems, Inc. (mouse myeloma NSO) (protein, UniProt P39905 78-211, looked up) Glial cell line-derived …: SPDKQMAVLPRRERNRQAAAANPENSRGKGRRGQRGKNRGCVLTAIHLNVTDLGLGYETKEELIFRYCSGSCDAAETTYDKILKNLSRNRRLVSDKVGQACCRPIAFDDDLSFLDDNLVYHILRKHSAKRCGCI", "values": [
      {"measurement": "GDNF concentration that evoked tubulogenesis", "setting": "[1]; cells expressing GFRα1 but not RET, dose-response FIG. 2C", "result": 0.1, "unit": "pg/ml"},
      {"measurement": "branching tubule formation", "setting": "[1]; [6]", "result": "formed branching tubules"},
      {"measurement": "branching tubulogenesis", "setting": "[1]; wild-type MDCK transduced with an adenovirus expressing GFRα1, data not shown", "result": "induced branching tubulogenesis"},
      {"measurement": "GDNF concentration at which cells started to branch", "setting": "[2]; cells co-expressing RET and GFRα1, dose-response FIG. 2C", "result": 0.1, "unit": "ng/mL"},
      {"measurement": "branching tubule formation", "setting": "[2]; [6]", "result": "formed branching tubules"},
      {"measurement": "migration towards soaked agarose bead", "setting": "[3]", "result": "Neither GFRα1-expressing, RET deficient cells nor mock-transfected cells, however, were attracted"},
      {"measurement": "migration towards soaked agarose bead", "setting": "[4]", "result": "actively migrated towards the source of GDNF"},
      {"measurement": "migration towards soaked agarose bead", "setting": "[5]", "result": "Neither GFRα1-expressing, RET deficient cells nor mock-transfected cells, however, were attracted"},
      {"measurement": "MET activation", "setting": "MET", "result": "takes place"}
    ]}
  ]
}
